Laboratory results taken from patent US20040115622A1.

Tests used:
[1] = target: HLA-DR molecule encoded by the allele DRB1*1501 (human); experiment: competition ELISA vs biotinylated A3 152-166
[2] = target: HLA-DR molecule encoded by the allele DRB1*0701 (human); experiment: competition ELISA vs biotinylated YKL
[3] = target: HLA-DR molecule encoded by the allele DRB4*0101 (human); experiment: competition ELISA vs biotinylated E2/E168
[4] = target: HLA-DR molecule encoded by the allele DRB1*0401 (human); experiment: competition ELISA vs biotinylated HA 306-318
[5] = target: HLA-DR molecule encoded by the allele DRB1*0101 (human); experiment: competition ELISA vs biotinylated HA 306-318
[6] = target: HLA-DR molecule encoded by the allele DRB5*0101 (human); experiment: competition ELISA vs biotinylated HA 306-318

Substance | IC50 [1] | IC50 [2] | IC50 [3] | IC50 [4] | IC50 [5] | IC50 [6]
Nef4 peptide (positions 66-94 of the HIV-1 Nef protein, Bru strain) (from UniProt P03406 66-94) (peptide; other documents disagree on this pair) | 0.75 µM | 5 µM | 0.225 µM | 0.045 µM | 0.055 µM | 0.012 µM
Nef4.1 peptide (positions 66-80 of the HIV-1 Nef protein, Bru strain) (from UniProt P03406 66-80) (peptide; other documents disagree on this pair) |  |  |  |  | 1.5 µM | 
Nef4.2 peptide (positions 68-82 of the HIV-1 Nef protein, Bru strain) (from UniProt P03406 68-82) (peptide; other documents disagree on this pair) | 7 µM |  |  |  | 0.25 µM | 
Nef4.3 peptide (positions 72-86 of the HIV-1 Nef protein, Bru strain) (from UniProt P03406 72-86) (peptide; other documents disagree on this pair) | 1.93 µM |  | 2.43 µM | 2 µM | 2 µM | 1.5 µM
Nef4.4 peptide (positions 74-88 of the HIV-1 Nef protein, Bru strain) (from UniProt P03406 74-88) (peptide; other documents disagree on this pair) | 0.667 µM |  | 0.55 µM | 0.225 µM | 0.35 µM | 0.7 µM
Nef4.5 peptide (positions 77-91 of the HIV-1 Nef protein, Bru strain) (from UniProt P03406 77-91) (peptide; other documents disagree on this pair) | 1.33 µM |  |  | 0.06 µM | 0.012 µM | 0.028 µM
Nef4.6 peptide (positions 79-93 of the HIV-1 Nef protein, Bru strain) (from UniProt P03406 79-93) (peptide; other documents disagree on this pair) |  |  |  | 0.15 µM | 0.055 µM | 0.045 µM
